The target in the assay is fetuin.

Take “recombinant protein of H5 hemagglutinin ectodomain (H5HA)”: the absorbance at 450 nm turned out to be 0.15 O.D. 450.

The values above are taken from patent publication US20190225979A1.
